Test results taken from patent publication US8530168B2, “Fusion protein comprising a Caspase domain and a nuclear hormone receptor binding domain and methods and uses thereof” (Helmholtz Zentrum Munich Deutsches Forschungszentrum fuer …, priority 2007, dated 2013).

B1: Casp8-ER(T2): fusion of murine Caspase-8 domain to the ER(T2) ligand binding domain, SEQ ID NO: 20 (protein)
chain: MSESRTSDKVYQMKNKPRGYCLIINNHDFSKAREDITQLRKMKDRKGTDCDKEALSKTFKELHFEIVSYDDCTANEIHEILEGYQSADHKNKDCFICCILSHGDKGVVYGTDGKEASIYDLTSYFTGSKCPSLSGKPKIFFIQACQGSNFQKGVPDEAGFEQQNHTLEVDSSSHKNYIPDEADFLLGMATVKNCVSYRDPVNGTWYIQSLCQSLRERCPQGDDILSILTGVNYDVSNKDDRRNKGKQMPQPTFTLRKKLFFPPLEPSAGDMRAANLWPSPLMIKRSKKNSLALSLTADQMVSALLDAEPPILYSEYDPTRPFSEASMMGLLTNLADRELVHMINWAKRVPGFVDLTLHDQVHLLECAWLEILMIGLVWRSMEHPVKLLFAPNLLLDRNQGKCVEGMVEIFDMLLATSSRFRMMNLQGEEFVCLKSIILLNSGVYTFLSSTLKSLEEKDHIHRVLDKITDTLIHLMAKAGLTLQQQHQRLAQLLLILSHIRHMSNKGMEHLYSMKCKNVVPLYDLLLEAADAHRLHAPTSRGGASVEETDQSHLATAGSTSSHSLQKYYITGEAEGFPATA
modifications: fusion protein Casp8-ER(T2)
B2: myrCasp8-ER(T2): murine Caspase-8 domain with N-terminal myristoylation motif fused to ER(T2) ligand binding domain, SEQ ID NO: 23 (protein)
chain: MGSSKSKPKDPSQRSESRTSDKVYQMKNKPRGYCLIINNHDFSKAREDITQLRKMKDRKGTDCDKEALSKTFKELHFEIVSYDDCTANEIHEILEGYQSADHKNKDCFICCILSHGDKGVVYGTDGKEASIYDLTSYFTGSKCPSLSGKPKIFFIQACQGSNFQKGVPDEAGFEQQNHTLEVDSSSHKNYIPDEADFLLGMATVKNCVSYRDPVNGTWYIQSLCQSLRERCPQGDDILSILTGVNYDVSNKDDRRNKGKQMPQPTFTLRKKLFFPPLEPSAGDMRAANLWPSPLMIKRSKKNSLALSLTADQMVSALLDAEPPILYSEYDPTRPFSEASMMGLLTNLADRELVHMINWAKRVPGFVDLTLHDQVHLLECAWLEILMIGLVWRSMEHPVKLLFAPNLLLDRNQGKCVEGMVEIFDMLLATSSRFRMMNLQGEEFVCLKSIILLNSGVYTFLSSTLKSLEEKDHIHRVLDKITDTLIHLMAKAGLTLQQQHQRLAQLLLILSHIRHMSNKGMEHLYSMKCKNVVPLYDLLLEAADAHRLHAPTSRGGASVEETDQSHLATAGSTSSHSLQKYYITGEAEGFPATA
modifications: N-terminal myristoylation motif; fusion protein myrCasp8-ER(T2)
B3: Cre-ER(T2): fusion of Cre recombinase to ER(T2) ligand binding domain, negative control, SEQ ID NO: 5 (protein)
chain: MSNLLTVHQNLPALPVDATSDEVRKNLMDMFRDRQAFSEHTWKMLLSVCRSWAAWCKLNNRKWFPAEPEDVRDYLLYLQARGLAVKTIQQHLGQLNMLHRRSGLPRPSDSNAVSLVMRRIRKENVDAGERAKQALAFERTDFDQVRSLMENSDRCQDIRNLAFLGIAYNTLLRIAEIARIRVKDISRTDGGRMLIHIGRTKTLVSTAGVEKALSLGVTKLVERWISVSGVADDPNNYLFCRVRKNGVAAPSATSQLSTRALEGIFEATHRLIYGAKDDSGQRYLAWSGHSARVGAARDMARAGVSIPEIMQAGGWTNVNIVMNYIRNLDSETGAMVRLLEDGDLEPSAGDMRAANLWPSPLMIKRSKKNSLALSLTADQMVSALLDAEPPILYSEYDPTRPFSEASMMGLLTNLADRELVHMINWAKRVPGFVDLTLHDQVHLLECAWLEILMIGLVWRSMEHPVKLLFAPNLLLDRNQGKCVEGMVEIFDMLLATSSRFRMMNLQGEEFVCLKSIILLNSGVYTFLSSTLKSLEEKDHIHRVLDKITDTLIHLMAKAGLTLQQQHQRLAQLLLILSHIRHMSNKGMEHLYSMKCKNVVPLYDLLLEAADAHRLHAPTSRGGASVEETDQSHLATAGSTSSHSLQKYYITGEAEGFPATA
modifications: fusion protein Cre-ER(T2)

How the values were obtained:
MEF5/N9 cells = experiment: TUNEL in situ cell death detection assay of MEF5/N9 clones; assay type: cell-based, mouse; conditions: 10^−8 M 4-OH-tamoxifen; for TUNEL result / apoptotic morphology (in words): 3 or 7 hours; for incubation time with 4-OH-tamoxifen at which TUNEL positive cells were detected: fixation at 2, 3, 5 and 7 hours
Source text: TUNEL, or terminal deoxynucleotidyl transferase-mediated dUTP nick end-labeling, is acknowledged as a method of choice in the rapid detection of DNA fragmentation that results from apoptotic signaling cascades (Gavrieli et al., J. Cell Biol., 119(3), 493-501 (1992)). Cleavage of genomic DNA during apoptosis may yield double-stranded, low molecular weight DNA fragments as well as single strand breaks (“nicks”) in high molecular weight DNA. Those DNA strand breaks can be identified by terminal deoxynucleotidyl transferase (TdT), which catalyzes polymerization of labeled nucleotides to free 3′-OH DNA ends in a template-independent manner. To detect 4-OH-tamoxifen induced cell death in MEF5/N9 cells, we applied the In Situ Cell Death Detection Kit, POD by Roche according to the manufacturer's instructions. Incorporated fluorescein is detected by anti-fluorescein antibody, conjugated with horse-radish peroxidase (POD). After substrate reaction, stained cells can be analyzed under light microscopy.
Two days prior to the TUNEL staining, round glass cover slips ([…]) were sterilized with 70% EtOH, dried under laminar flow and coated with Poly-L-lysine at a concentration of 50 μg/ml over night at 37° C., which allows a better attachment of cells on the cover slips. The following day, the cover slips were rinsed 3 times with PBS and dried for 1 hour under laminar flow. 2.5·10^5 cells were seeded onto cover slips in a 6-well plate. On the test day, medium was replaced either by fresh medium or medium supplemented with 10^−8 M 4-OH-tamoxifen. […] After fixation, cells were rinsed three times in PBS, covered with 100% methanol and incubated for 10 min or over night in a freezer and rinsed in PBS. Endogenous peroxidase activity was blocked by immersing cover slips for 10 min in 3% H2O2 in methanol prior to cell permeabilization. Cells were subsequently rinsed with PBS and incubated in permeabilization solution (0.1% Triton X-100 in freshly prepared 0.1% sodium citrate) for 2 min on ice. To generate a positive control, DNA strand breaks were induced by incubating permeabilized cells with 2 U/ml DNase I in 50 mM Tris-HCl, pH 7.5, 10 mM MgCl2, 1 mg/ml BSA for 10 min at room temperature, prior to labeling procedure. Cover slips were rinsed twice with PBS before incubating each sample with 25 μl TUNEL reaction mixture for 60 min at 37° C. in a humidified atmosphere in the dark. To avoid evaporative loss, cover slips were covered with parafilm. For a negative control 25 μl of Label solution without enzyme solution were added. Following labeling, cover slips were rinsed 3 times with PBS for 10 min each. To convert the fluorescence signal to a chromogenic signal, 25 μl of the POD solution were added on each sample which was covered with parafilm and incubated in a humidified chamber for 30 min at 37° C. Subsequently, cover slips were rinsed 3 times with PBS and incubated in freshly prepared 0.05% DAB in 0.1 M Tris-HCl (pH 7.4) supplemented with 0.02% H2O2 for 10-20 min at room temperature. The conversion procedure was controlled under a light microscope. The reaction was stopped with PBS until brown precipitates were well visible inside the cells. To remove DAB, cover slips were rinsed several times in PBS. Optionally, nuclear staining was performed by incubating cover slips for 15 min in 2.5 μg/ml DAPI diluted in PBS. Cover slips were mounted with a water-soluble, non-fluorescing mounting medium (Aqua-Poly/Mount; Polysciences Inc., Eppelheim, Germany) under SuperFrost slides (VWR International). Prior to the analysis of the samples under a light microscope, mounting medium was dried for 24 hours at room temperature.
To provide direct evidence for 4-OH-tamoxifen-induced apoptosis in MEF5/N9 clones expressing Caspase-8 or -9 fusion proteins, an in situ application of the TUNEL assay was performed. This method detects DNA fragmentation, one of the late events that result from apoptotic signaling cascades. […]

Pac2 cells = experiment: Transient cotransfection with β-galactosidase reporter into Pac2 cells; assay type: cell-based, zebrafish; conditions: 10^−8 M 4-OH-tamoxifen, Cre-ER(T2) as reference, range given jointly for HeLa and Pac2
Experimental: (§1) Results are shown as mean values of triplicate samples with standard deviation. (b) Transient cotransfection of a β-galactosidase reporter with a Cre-ER(T2), myrCasp8-ER(T2), or Casp9-ER(T2) expression plasmid into murine M5/N9 (black columns), human HeLa (grey columns) or zebrafish Pac2 (open columns) cells. 12 h following transfection, cells were cultured for 36 h with 4-OH-tamoxifen at 10^−8 M and the activity of β-galactosidase in cell lysates was determined. Values obtained from transfections of the Cre-ER(T2) vector were defined as reference. Results are shown as mean values of triplicate samples with standard deviation.
PAC2 zebrafish fibroblasts were grown in Leibowitz's L15—with L-Glutamine medium supplemented with 1% Non-essential Amino Acids, 1% Penicillin/Streptomycin and 10% fetal calf serum (all Gibco) at 28° C. 3×10^6 Cells were transiently transfected with the plasmids CMVβ together with CAG-CreER(T2), CAG-myrCasp8ER(T2) or CAG-Casp9ER(T2) (500 ng each) using nanofectin transfection reagent (PAA). 24 hrs after transfection the medium was replaced and conditioned with 10^−8 M 4-OH-tamoxifen. Before lysis, the cells were incubated for another 24 hrs at 28°. […]

HeLa cells = experiment: Transient cotransfection with β-galactosidase reporter into HeLa cells; assay type: cell-based, human; conditions: 10^−8 M 4-OH-tamoxifen, Cre-ER(T2) as reference, range given jointly for HeLa and Pac2
Experimental: as §1
Transient transfections into M5/N9 and HeLa cells were performed with FuGene transfection reagent (Roche) following the manufacturer's instructions. Briefly, semiconfluent cultures in a 24-well plate were transfected in triplicate with 112 ng of the β-galactosidase expression vector CMVβ(Invitrogen) and the same amount of pCAG-Cre-ER(T2), pCAG-Casp8-ER(T2) or pCAG-Casp9-ER(T2) plasmid DNA. After 12 h 4-OH-tamoxifen was added at a concentration of 10^−8 M and the cultures were lysed at 48 h. Cell lysis and the measurement of β-galactosidase activity by chemiluminescence were performed with the β-galactosidase reporter gene assay (Roche) using a Centro LB960 plate luminometer (Berthold). […]

Molecule | TUNEL result / apoptotic morphology (in words) (MEF5/N9 cells) | incubation time with 4-OH-tamoxifen at which TUNEL positive cells were detected (MEF5/N9 cells) [h] | reduction of β-Galactosidase activity in presence of 4-OHT (Pac2 cells) | reduction of β-Galactosidase activity in presence of 4-OHT (HeLa cells)
B1 | typical apoptotic morphology | 7 |  | 
B2 | typical apoptotic morphology | 3 | 95-99% | 95-99%
B3 | TUNEL negative at any point in time |  |  | 
